Target: T1, EBOV sGP (Mayinga) (Zaire ebolavirus, Mayinga, GenBank …, UniProt P60170)
T1 construct: source: FreeStyle-293-F, transiently transfected, purified (Strep-Tactin, SEC)
Assay: ELISA
Conditions: both partners purified

T1 sequence (P60170 33-314): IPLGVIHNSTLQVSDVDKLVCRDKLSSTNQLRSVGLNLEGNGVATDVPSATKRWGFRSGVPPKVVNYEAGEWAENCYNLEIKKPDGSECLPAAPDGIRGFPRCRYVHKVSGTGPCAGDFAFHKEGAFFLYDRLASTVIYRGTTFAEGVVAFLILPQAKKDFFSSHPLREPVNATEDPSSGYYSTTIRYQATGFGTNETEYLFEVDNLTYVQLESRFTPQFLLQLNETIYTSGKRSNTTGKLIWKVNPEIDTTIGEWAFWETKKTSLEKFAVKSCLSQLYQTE

B1: EBOV-548 (antibody, V domains shown)
VH: QVQVEESGGGVVQPGGSLRLSCAASGFMFSNYGMHWVRQAPGKGLEWMAFIRYDDSKKFYADSVKGRFTISRDNSKNTLYLQMNSLRAEDTALYYCAKELLQVYTSAWGEGHSYYYALDVWGLGTAVTVSS
VL: DIQMTQSPSSVSASVGDRVTITCRASQDISNWLAWYQQKPGKAPELLIYTASILQSGVSSRFSGSGSGTDFTLTISSLQPEDSATYYCQQGKSFPYTFGQGTKLEIK
B1: binds.

— publication PMC8133395 (Cell reports, 2021)
